Experimental findings from article PMC6544321 are described below.

Experiment [1] deals with A. thaliana Z-B dimer (AtH2A.Z/AtH2B dimer) (Arabidopsis thaliana). Nature of the experiment: ITC; AtChz1b (253-463) with A. thaliana histone dimers in 0.1 M NaCl.
The target is the same in experiment [2]. Briefly: ITC; AtChz1b (253-463) with A. thaliana histone dimers in 0.25 M NaCl. In general terms: ITC needs no label: the signal is the heat of the interaction.
In experiment [3] the target is single chain H2A-H2B with H2A P50A/N91G (yeast). Nature of the experiment: ITC; 0.2 M NaCl (Table 1); Swc2-Z or Chz1-M injected into single-chain histone dimers; otherwise as the ITC methods (25°C, 20 mM MES pH 6.0).
In experiment [4] the target is single-chain H2A.Z-H2B with H2A.Z A57P/G98N (yeast). The experiment is described as above.
For experiment [5], the target named is yeast single chain H2A-H2B (yeast). Described as above.
Experiment [6] addresses yeast single-chain H2A.Z-H2B (yeast). Described as above.

Turning to “AtChz1b (residues 253–463) (domain or fragment)”, the Kd in experiment [1] is 0.05 µM; in experiment [2], 19.9 µM.
In the case of “Swc2-Z, the 1–136 segment of the Swc2 subunit of the SWR1 complex (domain or fragment)”, the Kd was 0.17 µM in experiment [3], 0.04 µM in experiment [4] and 0.04 µM in experiment [6]. For the same substance, the stoichiometry N in experiment [3] was 1 sites; in experiment [4] it was 0.8 sites; in experiment [5], 0.9 sites; in experiment [6], 1.1 sites.

By Kd is commonly meant the equilibrium constant for the complex coming apart. Low readings indicate a tighter complex, high ones a looser complex. The stoichiometry N is a count of units in the complex or per binding partner.
